To fix the notation:
B1: MspA-(G75S/G77S/L88N/D90N/D91N/D93N/D118R/Q126R/D134R/E139K) monomer (other)
chain: GLDNELSLVDGQDRTLTVQQWDTFLNGVFPLDRNRLTREWFHSGRAKYIVAGPGADEFEGTLELGYQIGFPWSLSVSINFSYTTPNININNGNITAPPFGLNSVITPNLFPGVSISARLGNGPGIREVATFSVRVSGAKGGVAVSNAHGTVTGAAGGVLLRPFARLIASTGDSVTTYGEPWNMN
notes: Made by coupled in vitro transcription and translation (35S-methionine) with rabbit red blood cell membranes; eight copies in the homo-oligomer; also called untagged monomer; untagged version
B5: MspA-((Del-L74/G75/D118/L119)D56N/E59R/L88N/D90N/D91N/Q126R/D134R/E139K) monomer (other)
chain: GLDNELSLVDGQDRTLTVQQWDTFLNGVFPLDRNRLTREWFHSGRAKYIVAGPGANEFRGTLELGYQIGFPWSVGINFSYTTPNININNGDITAPPFGLNSVITPNLFPGVSISAGNGPGIREVATFSVRVSGAKGGVAVSNAHGTVTGAAGGVLLRPFARLIASTGDSVTTYGEPWNMN
notes: Pore-forming monomer; Seven copies in MspA 1 (7:1), eight in the homo-oligomer MspA 6; also called untagged monomer of MspA 1; monomer of MspA 6

Series [1] concerns the molecule itself. Description: IVTT with rRBCM, 7.5% Tris HCl gel, autoradiography.
The target of series [2] is B5. In words: co-expression in E. coli, His column, gel filtration, gel; 7:1 hetero-oligomer.
For series [3], the target named is T1, MspA-((Del-L74/G75/D118/L119)D56N/E59R/L88N/D90N/D91N/N108P/Q126R/D134R/E139K) monomer (Mycobacterium smegmatis, UniProt A0QR29 28-211).
T1 construct: Seven copies in each of the 7:1 pores MspA 2, MspA 3 and MspA 7; also called untagged monomer of MspA 2, MspA 3 and MspA 7
T1 chain: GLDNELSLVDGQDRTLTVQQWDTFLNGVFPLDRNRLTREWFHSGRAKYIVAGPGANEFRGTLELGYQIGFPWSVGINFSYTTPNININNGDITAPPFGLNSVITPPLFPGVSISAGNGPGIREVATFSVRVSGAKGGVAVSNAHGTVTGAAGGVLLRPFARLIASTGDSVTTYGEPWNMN
In words: co-expression under 14 induction conditions, NiNTA batch purification, 10% TGX gel.

Series [4] has as its target B1. In words: IVTT of mixed DNA (2:1 untagged:tagged) with rRBCM, 7.5% Tris HCl gel, autoradiography.
Series [5] concerns the molecule itself. Description: 10% TGX gel, coomassie; homo-octamer, broken into monomers at 100 C in 50% DMSO.
Series [6] concerns the molecule itself. In words: IVTT with rRBCM, 5% Tris HCl gel, autoradiography; homo-oligomerisation.

For the molecule B1, in series [1], the binding result is “binds”.

B2: MspA-((Del-L74/G75/D118/L119)D56N/E59R/L88N/D91N/Q126R/D134R/E139K/BasTL/H6) monomer (other)
chain: GLDNELSLVDGQDRTLTVQQWDTFLNGVFPLDRNRLTREWFHSGRAKYIVAGPGANEFRGTLELGYQIGFPWSVGINFSYTTPNINIDNGDITAPPFGLNSVITPNLFPGVSISAGNGPGIREVATFSVRVSGAKGGVAVSNAHGTVTGAAGGVLLRPFARLIASTGDSVTTYGEPWNMNDNQKALEEQMNSINSVNDKLNKGKGKLSLSMNGNQLKATSSNAGYGISYEDKNWGIFVNGEKVYTFNEKSTVGNISNDINKLNIKGPYIEIKKIHHHHHH
notes: also called tagged monomer of MspA 1
For the molecule B2, the binding result in series [2] was “binds”.

B3: MspA-((Del-L74/G75/D118/L119)D56N/E59R/L88N/D91N/N108P/Q126R/D134R/E139K/BasTL/H6) monomer (other)
chain: GLDNELSLVDGQDRTLTVQQWDTFLNGVFPLDRNRLTREWFHSGRAKYIVAGPGANEFRGTLELGYQIGFPWSVGINFSYTTPNINIDNGDITAPPFGLNSVITPPLFPGVSISAGNGPGIREVATFSVRVSGAKGGVAVSNAHGTVTGAAGGVLLRPFARLIASTGDSVTTYGEPWNMNDNQKALEEQMNSINSVNDKLNKGKGKLSLSMNGNQLKATSSNAGYGISYEDKNWGIFVNGEKVYTFNEKSTVGNISNDINKLNIKGPYIEIKKIHHHHHH
notes: One copy in MspA 2 (7:1); also called tagged monomer of MspA 2; monomer unit with the BasTL-H6 attached
Consider B3, for which the binding result in series [3] is on record as “binds”.

B4: MspA-(G75S/G77S/L88N/D90N/D91N/D93N/D118R/Q126R/D134R/E139K/BasTL) monomer (other)
chain: GLDNELSLVDGQDRTLTVQQWDTFLNGVFPLDRNRLTREWFHSGRAKYIVAGPGADEFEGTLELGYQIGFPWSLSVSINFSYTTPNININNGNITAPPFGLNSVITPNLFPGVSISARLGNGPGIREVATFSVRVSGAKGGVAVSNAHGTVTGAAGGVLLRPFARLIASTGDSVTTYGEPWNMNDNQKALEEQMNSINSVNDKLNKGKGKLSLSMNGNQLKATSSNAGYGISYEDKNWGIFVNGEKVYTFNEKSTVGNISNDINKLNIKGPYIEIKKI
notes: also called monomer tagged with full length BasTL
As to B4, the binding result in series [4] was “binds”.

B5: in series [5], the binding result is given as “binds”.

B6: MspA-(G75S/G77S/L88N/D90N/D91N/D93N/D118R/Q126R/D134R/E139K/D10H6) monomer (other)
chain: GLDNELSLVDGQDRTLTVQQWDTFLNGVFPLDRNRLTREWFHSGRAKYIVAGPGADEFEGTLELGYQIGFPWSLSVSINFSYTTPNININNGNITAPPFGLNSVITPNLFPGVSISARLGNGPGIREVATFSVRVSGAKGGVAVSNAHGTVTGAAGGVLLRPFARLIASTGDSVTTYGEPWNMNDDDDDDDDDDHHHHHH
notes: also called D10H6 tagged monomer
Regarding B6, the binding result in series [6] is on record as “no binding”.
